Measured values as given in US20240285788A1, “CONJUGATE OF ANTIBODY AND FUNCTIONAL SUBSTANCE OR SALT THEREOF, AND ANTIBODY DERIVATIVE AND COMPOUND USED IN PRODUCTION OF THE SAME OR SALTS THEREOF” (Ajinomoto Co., Inc., priority 2021, published 2024).

What was measured:
[1] = Evaluation of aggregation ratio by size exclusion chromatography (SEC-HPLC); format: physicochemical
Method: SEC-HPLC analysis was performed according to a previous report (Chemistry Select, 2020, 5, 8435-8439). Measurement was performed using the following conditions.
Measurement system: 1260 HPLC system (manufactured by Agilent)
Column: AdvanceBio SEC 300 Å, 2.7 μm, 4.6 mm×150 mm, manufactured by Agilent Technologies
Eluent: 100 mM sodium dihydrogen phosphate/sodium hydrogen phosphate, aqueous solution of 250 mM sodium chloride (pH 6.8), 10% v/v isopropanol
SEC-HPLC analysis was performed according to Example 10.

[2] = Evaluation of degree of hydrophobicity by hydrophobic column chromatography (HIC-HPLC); format: physicochemical; conditions: for Retention time: ADC mimics from thiol group-introduced trastuzumab, DAR 2
Method: (§1) According to a previous report (Anal. Chem., 2019, 91, 20, 12724-12732, which is incorporated herein by reference in tis entirety), HIC-HPLC analysis was performed. Measurement was performed using the following conditions. Degrees of hydrophobicity of an ADC can be evaluated by retention time of the ADC in HIC chromatogram.
Measurement system: Chromaster (registered trademark) (manufactured by Hitachi, Ltd.)
Column: Tosoh Biobuthyl NPR 2.5 μm 4.6×35 mm column manufactured by Tosoh Bio-Sciences Inc.
Gradient: linear gradient of eluent A/B
Eluent B: 25 mM Na2HPO4/NaH2PO4 (pH 6.0, 25 v/v % isopropanol added)
For DAR analysis of the ADC mimics synthesized in Example 7 and Comparative Example 2, HIC-HPLC analysis was performed according to a previous report (Anal. Chem., 2019, 91, 20, 12724-12732, which is incorporated herein by reference in its entirety). Measurement was performed using the following conditions.
HIC-HPLC analysis was performed using the condition of Example 8. Measurement was performed using the following conditions. A degree of hydrophobicity of ADC mimic can be evaluated by retention time of ADC in HIC chromatogram.
HIC-HPLC analysis was performed using the condition of Example 8.
Subsequently, hydrophobicity of an ADC was evaluated using HIC-HPLC. Measurement was performed according to Example 9. A degree of hydrophobicity of an ADC can be evaluated by retention time of ADC in HIC chromatogram.
as §1, with “its” for “tis”

Row | Structure (SMILES) | tendency of aggregation ratio by SEC-HPLC (in words) [1] | degree of hydrophilicity judged from retention time in HIC chromatogram (in words) [2] | Retention time ([2]; Table 2, HIC-HPLC) [min] | Retention time ([2]; Table 20) [min]
1 | CSC1CC(=O)N(CCCCCNC(=O)C(OC(=O)N(C)CC(=O)NCc2ccc3ccc4cccc5ccc2c3c45)c2ccc(NC(=O)[C@H](CCCNC(N)=O)NC(=O)[C@@H](NC(=O)[C@H](CCC(=O)O)NC(=O)[C@H](CCC(=O)O)NC(C)=O)C(C)C)cc2)C1=O (stereo partly drawn) [ADC mimic 13] | low aggregation ratios | more hydrophilic | – | –
2 | CCCCCNC(=O)CCSC1CC(=O)N(CCCCCNC(=O)C(OC(=O)N(C)CC(=O)NCc2ccc3ccc4cccc5ccc2c3c45)c2ccc(NC(=O)[C@H](CCCNC(N)=O)NC(=O)[C@@H](NC(=O)OCc3ccccc3)C(C)C)cc2)C1=O (stereo partly drawn) [ADC mimic 5] | – | – | 13.6 | 13.6
3 | CSC1CC(=O)N(CCCCCNC(=O)C(OC(=O)N(C)CC(=O)NCc2ccc3ccc4cccc5ccc2c3c45)c2ccc(NC(=O)[C@H](CCCNC(N)=O)NC(=O)[C@@H](NC(=O)[C@H](CCC(=O)O)NC(C)=O)C(C)C)cc2)C1=O (stereo partly drawn) [ADC mimic 12] | – | more hydrophilic | – | –
4 | CSC1CC(=O)N(CCCCCNC(=O)C(OC(=O)N(C)CC(=O)NCc2ccc3ccc4cccc5ccc2c3c45)c2ccc(NC(=O)[C@H](C)NC(=O)[C@@H](NC(=O)[C@H](CCC(=O)O)NC(C)=O)C(C)C)cc2)C1=O (stereo partly drawn) [ADC mimic 14] | – | more hydrophilic | – | –
